# According to publication PMC6770517, “Insight into the Antifungal Mechanism of Action of Human RNase N-terminus Derived Peptides” (International Journal of Molecular Sciences, 2019):
# B1: hRNase3: human ribonuclease 3 of the RNaseA superfamily, parental protein of RN3 (protein, UniProt P12724 28-160, looked up)
# Eosinophil cationic protein: RPPQFTRAQWFAIQHISLNPPRCTIAMRAINNYRWRCKNQNTFLRTTFANVVNVCGNQSIRCPHNRTLNNCHRSRFRVPLLHCDLINPGAQNISNCTYADRPGRRFYVVACDNRDPRDSPRYPVVPVHLDTTI
# Columns and labels:
# C. albicans cells [1] = assay: Cell binding assay (supernatant SDS-PAGE); parameters: species or system Candida albicans (ATCC 90028); conditions: 1 μM, PBS, 30 °C, 15, 30 and 60 min; unbound fraction by SDS-PAGE
# Experimental: (§1) C. albicans was cultured overnight in Sabouraud Dextrose broth at 30 °C, sub-cultured the next day and grown to an optical density of 0.4 at 592 nm (mid log-phase). Cells were washed twice in PBS and adjusted to 2 × 10^6 cells/mL. Cells and yeast β-D-Glucan (0.4 mg/mL) (Sigma) were respectively incubated in 100 μL of PBS at 30 °C with proteins and peptides at 1 μM final concentration during different periods of time up to 1 h. Following, the samples were centrifuged at 12,000× g. The supernatant samples were concentrated, and the presence of the proteins and peptides was checked by 15–18% SDS-PAGE and Coomassie Blue staining. Reference protein controls were treated following the same protocol in the absence of cells.
# [2] = β-D-Glucan binding assay (supernatant SDS-PAGE); parameters: species or system yeast; conditions: β-D-Glucan 0.4 mg/mL, 1 μM, PBS, 30 °C, up to 1 h; unbound fraction by SDS-PAGE
# Experimental: as §1
# C. albicans cells [3] = assay: Minimal agglutination activity (MAC); assay type: cell-based, Candida albicans (ATCC 90028); conditions: protein tested up to 20 μM
# Experimental: C. albicans cells were grown at 30 °C to an OD592 of 1.0, diluted 10 times, centrifuged at 5000× g for 2 min, and resuspended in 1× PBS. An aliquot of 100 μL of the cellular suspension was treated with increasing peptide concentrations (from 0.01 to 20 μM) and incubated at 30 °C for 1 h. The aggregation behavior was observed by visual inspection, and the agglutinating activity is expressed as the minimum agglutinating concentration of the sample tested, as previously described. Images were taken using a 50× stereoscope microscope.
molecule,measurement,setting,value
B1,binding to C. albicans cell wall,C. albicans cells [1],able to bind to the C. albicans cell wall
same,binding to main cell wall component (β-D-Glucan),[2],positive binding
same,agglutination of C. albicans by the parental hRNase,C. albicans cells [3],able to agglutinate C. albicans
